Measured values as given in PMC8677862, “Substrate binding modes of purine and pyrimidine nucleotides to human ecto-5′-nucleotidase (CD73) and inhibition by their bisphosphonic acid derivatives” (Purinergic Signalling, 2021).

Substrate: Nc1ncnc2c1ncn2[C@@H]1O[C@H](COP(=O)(O)O)[C@@H](O)[C@H]1O
Assay: purified protein, by the assay type
Assay type: biochemical, human
Conditions: other: AMP 5-200 μM, 1.25 ng CD73; pH 7.5; 25.0 °C
Method: In this study, enzyme activity and inhibition data was characterised using a modified malachite green assay. Each assay consisted of reaction buffer A (50 mM Tris–HCl pH 7.5, 100 mM NaCl, 1 mM MgCl2) to which the appropriate substrate and/or inhibitors (see Table S1) were added. Dissolved compounds were immediately used for the inhibition assays. The reactions were generally initiated by the addition of protein. The protein concentrations, substrates and inhibitors used for the various experiments are detailed below. In all experiments, reactions were monitored over a 10-min period during which samples were taken at regular intervals. At each desired time point, a malachite green/molybdate (1:1) solution was added to the sample, which simultaneously terminated the assay and also allowed the detection of the produced phosphate ions. These reaction mixtures were incubated at 25 °C for 25 min, followed by measurement of the absorbance at 620 nm. […]
The specific activity (μmol Pi/min/mg protein) was calculated from the initial reaction rates and was used to determine when the protein refolding process had reached completion. […] Kinetic values were determined by fitting the Michaelis–Menten equation to the initial reaction rates using GraphPad Prism (GraphPad Software, La Jolla, CA, USA). […]

B1: human CD73 (Homo sapiens; K145S/K147S/K478S/N311D/N333D/N403D/N53D/T376A) (protein)
chain: WELTILHTNDVHSRLEQTSEDSSKCVDASRCMGGVARLFTKVQQIRRAEPNVLLLDAGDQYQGTIWFTVYKGAEVAHFMNALRYDAMALGNHEFDNGVEGLIEPLLKEAKFPILSANISASGPLASQISGLYLPYKVLPVGDEVVGIVGYTSKETPFLSNPGTNLVFEDEITALQPEVDKLKTLNVNKIIALGHSGFEMDKLIAQKVRGVDVVVGGHSNTFLYTGNPPSKEVPAGKYPFIVTSDDGRKVPVVQAYAFGKYLGYLKIEFDERGNVISSHGNPILLDSSIPEDPSIKADINKWRIKLDDYSTQELGKTIVYLDGSSQSCRFRECNMGNLICDAMINNNLRHADEMFWNHVSMCILNGGGIRSPIDERNDGTITWENLAAVLPFGGTFDLVQLKGSTLKKAFEHSVHRYGQSTGEFLQVGGIHVVYDLSRKPGDRVVKLDVLCTSCRVPSYDPLKMDEVYKVILPNFLANGGDGFQMIKDELLRHDSGDQDINVVSTYISKMKVIYPAVEGRIKFS
notes: His6 (C); made in house
Km: 10.5 µM | Vmax: 301.2 U/mg
